Assay results taken from patent US20120213699A1 (BOARD OF TRUSTEES OF THE UNIVERSITY OF ILLINOIS, published 2012).

Target: T1, BSA (UniProt P02769 25-607)
T1 construct: Negative control coating; also called bovine serum albumin
Assay: phage ELISA on coated plates, anti-M13 peroxidase
Procedure: Phage ELISA on ACE-coated plates. Purified phages after 1st round of selection were taken for analysis in ELISA. […] For that, 96 well plate was coated with human and rat ACEs as a positive controls, and bovine ACE and BSA (5 ug/ml) as a negative controls. Plates were blocked for 30 min with 2% non-fat dry milk, and phages diluted in the milk were applied to the plates. After 30 min incubation with shaking and another 1.5 hours without shaking, unbound phages were washed with PBS/0.05% Tween 20 and anti-M13 antibodies conjugated with peroxidase (Pharmacia Biotech) diluted 1/2000 dilution in the 2% non-fat dry milk were added. After intensive washing with PBS/0.05% Tween 20 plates were developed with 1-step 3,3′5,5′-Tetramethyl-benzidine (TBM) substrate for ELISA and read at OD620 or at OD450 after reaction was stopped with 3N HCl.
For the assay 96 well plates were coated with human and rat ACEs as positive controls and with bovine ACE and BSA (5 μg/ml) as negative controls. Plates were blocked for 30 min with 2% non-fat dry milk and the phages diluted in milk were applied to the plates. […] After Intensive washing with PBS/Tween 20 the plates were developed with 1-step TBM substrate for ELISA and read at 620 nm or 450 nm after the reaction was stopped with 3N HCl.

T1 sequence (P02769 25-607 limits assumed): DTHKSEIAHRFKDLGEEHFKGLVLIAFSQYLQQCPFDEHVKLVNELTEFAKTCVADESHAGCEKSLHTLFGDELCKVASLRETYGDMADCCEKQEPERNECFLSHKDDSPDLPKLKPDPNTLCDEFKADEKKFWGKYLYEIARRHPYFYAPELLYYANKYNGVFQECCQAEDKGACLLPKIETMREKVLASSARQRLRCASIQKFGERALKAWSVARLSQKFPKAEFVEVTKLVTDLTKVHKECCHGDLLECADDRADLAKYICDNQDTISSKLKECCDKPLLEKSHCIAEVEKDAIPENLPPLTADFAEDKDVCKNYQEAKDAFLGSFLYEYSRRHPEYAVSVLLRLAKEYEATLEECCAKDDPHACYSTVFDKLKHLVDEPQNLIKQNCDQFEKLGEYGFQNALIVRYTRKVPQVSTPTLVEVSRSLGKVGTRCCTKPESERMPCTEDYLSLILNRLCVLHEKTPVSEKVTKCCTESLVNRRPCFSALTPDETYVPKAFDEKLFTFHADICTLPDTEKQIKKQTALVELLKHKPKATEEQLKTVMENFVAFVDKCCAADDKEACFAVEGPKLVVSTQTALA

B1: scFv 9B9 expressed on the phage surface (phages with the λ fragment) (scFv)
scFv: QVQLKESGPGLVAPSQSLSITCTVSGFSLTTYGVHWVRQPPGKGLEWLGVIWGGGNTNYNSALMSRLNITKDNSKRQVFLKMNSLQADDTGMYYCARGWDSWGQGTTLTVSSAKTTPPKLEEGEFSEARVQAVVTQESALTTSPGETVTLTCRSSTGAVTTNNYANWVQENPDHLFTGLIDGTNTRSPGVPARFSGSLIGDKAALTITGAQTEDEAIYFCALWYSNHWVFGGGTKLTVLGQ
notes: also called scFv 9B9 phages; 9B9 scFv phages; not shown: phage coat protein fusion partner from phagemid pSEX 81
B1: no binding (tested: 5 µg/ml (coating)).
